Legend:
[1] = literature value, ref not given; cited from earlier work
[2] = Solubility in aqueous buffer by 1H NMR; type: physicochemical; conditions: for solubility compared to that of PTX alone: qualitative
[3] = heparinized rat plasma, 400 μM compound, 37 °C, 1D 1H NMR 600 MHz
[4] = Stability in aqueous buffer and organic solvents by NMR; type: physicochemical

## CC(=O)O[C@H]1C(=O)[C@@]2(C)[C@H]([C@H](OC(=O)c3ccccc3)[C@]3(O)C[C@H](OC(=O)[C@H](O)[C@@H](NC(=O)c4ccccc4)c4ccccc4)C(C)=C1C3(C)C)[C@]1(OC(C)=O)CO[C@@H]1C[C@@H]2O [PTX, paclitaxel]
[1]
  aqueous solubility: < 10 µg/mL
  log P: 3.96
[2]; assessed from 1H NMR spectra in aqueous buffer
  solubility in aqueous buffer: below 10 μM

## YSAYPDSVPMMS [YSA-L2-PTX]
[2]
  solubility compared to that of PTX alone: increased solubility

## ySAYPDSVP(L-Norleucine)(L-Homoserine)S [dYNH-L2-PTX]
[2]
  solubility compared to that of PTX alone: increased solubility
[3]
  degradation after 8 hours incubation with plasma: d-Tyr1 does not appear to be degraded

## DYPSMAMYSPSV [DYP-L2-PTX]
[2]
  solubility compared to that of PTX alone: increased solubility

## YSAYPDSVPMMS [YSA-L1-PTX]
[4]; DMSO or methanol
  stability in organic solvents: very stable
[4]; aqueous buffer
  time within which degradation of the linker in buffer is observed: ≤ 10 min

From PMC4082471 (ChemMedChem, 2014)
